Assay results as given in US20230242675A1 (SHANGHAI EPIMAB BIOTHERAPEUTICS, published 2023).

T1: human TGFβ2 (human, UniProt P61812 303-414)
T1 construct: also called TGFβ isoform 2; TGFβ2 (Cat. No. CJ79, Novoprotein)
T1 sequence (looked up): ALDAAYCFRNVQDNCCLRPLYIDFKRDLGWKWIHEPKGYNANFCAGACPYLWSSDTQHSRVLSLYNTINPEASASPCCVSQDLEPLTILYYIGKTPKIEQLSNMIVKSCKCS


Columns and labels:
[1] = biological target: T2, human PD-L1/His fusion protein (human, UniProt Q9NZQ7 19-239); test: BLI Octet RED96, antibody on AHC sensor, single conc. PD-L1/His; test group 4; test group 4
Description: (§1) Briefly, antibodies were characterized for affinities and binding kinetics by Octet®RED96 biolayer interferometry (Pall ForteBio LLC). Antibodies were captured by Anti-hIgG Fc Capture (AHC) Biosensors (Pall) at a concentration of 100 nM for 30 seconds. Sensors were then dipped into running buffer (1×pH 7.2 PBS, 0.05% Tween 20, 0.1% BSA) for 60 seconds to check baseline. Binding was measured by dipping sensors into a single concentration of recombinant human PD-L1/His fusion protein (Novoprotein). Dissociation was followed by dipping sensors into running buffer for 1200 seconds. The association and dissociation curves were fitted to a 1:1 Langmuir binding model using ForteBio Data Analysis software (Pall). […] The off-rate ratio serves as a data normalization. Accordingly, in each test group, the off-rate ratios of the humanized antibodies can be compared with that of the chimeric antibody, and the off-rate ratios of each of the humanized antibodies can be compared to one another within all test groups.

[2] = biological target: T2, human PD-L1/His fusion protein; test: BLI off-rate; test group 4
Description: as §1

[3] = biological target: T3, biotinylated human PD-L1 protein (ACROBiosystems, H82E5) (human, UniProt Q9NZQ7 19-238, biotinylated (site not stated)); test: dual-binding ELISA: human TGFβ2 coated, 5 nM binding protein bound to it, biotinylated human PD-L1 titrated 0.0006-10 nM (axis labelled Ab (nM)), streptavidin-HRP, OD450; the EC50 is of the titrated PD-L1
T3 construct: also called biotinylated PD-L1
Description: (§2) Briefly, ELISA plates were incubated overnight at 4° C. with 100 μl of a human TGFβ isoform diluted in PBS buffer, pH 7.4, at 1 μg/ml, to allow the human TGFβ isoform to coat (adsorb to) the surface of the wells. Plates were washed three times in washing buffer (PBS containing 0.05% Tween 20) and blocked for 1 hour at 37° C. with 200 μl per well blocking buffer (1% BSA in PBS containing 0.05% Tween 20). […] The wells were washed four times with washing buffer, and Streptavidin-HRP (Merck, RABHRP3) was diluted 1:10000 and added to the wells at 100 μl per well. The plates were incubated for 1 hour at 37° C. and washed four times in washing buffer. 100 μl of tetramethylbenzidine (TMB) chromogenic solution were added per well.

[4] = biological target: T3, biotinylated human PD-L1 protein …; test: dual-binding ELISA: human TGFβ1 coated, 5 nM binding protein bound to it, biotinylated human PD-L1 titrated 0.0006-10 nM (axis labelled Ab (nM)), streptavidin-HRP, OD450; the EC50 is of the titrated PD-L1
Description: as §2

human TGFβ1 = biological target: T4, human TGFβ1 (human, UniProt P01137 279-390); test: ELISA: human TGFβ1 coated (1 µg/ml), binding protein titrated 0.0006-10 nM, anti-human IgG Fc-HRP, OD450
T4 construct: also called TGFβ isoform 1; TGFβ1 (Cat. No. CA59, Novoprotein)
Description: (§3) Accordingly, each of the wells of the ELISA microplates provided a reaction mixture to test the ability of a particular binding protein at a particular concentration to bind to a particular TGFβ isoform. […] Plates were washed three times in washing buffer (PBS containing 0.05% Tween 20) and blocked for 1 hour at 37° C. with 200 μl per well of blocking buffer (1% BSA in PBS containing 0.05% Tween 20). […] The wells containing the various binding mixtures were incubated at 37° C. for 1 hour to permit binding to TGFβ protein on the surface of the wells. Thereafter, the wells were washed four times with washing buffer, and anti-human IgG Fc HRP (Sigma, Catalog No. A0170) was diluted 1:10000 and added to the wells at 100 μl per well to detect binding protein that was bound to TGFβ protein present on the surface of a well. The plates were incubated for 1 hour at 37° C. and washed four times with washing buffer. 100 μl of tetramethylbenzidine (TMB) chromogenic solution were added per well. Following color development, the reaction was stopped with 1 N HCl, and absorbance at 450 nm (OD450) was measured on a VARIOSKAN™ LUX microplate reader (Thermo Scientific™).

human TGFβ2 = biological target: T1, human TGFβ2; test: ELISA: human TGFβ2 coated (1 µg/ml), binding protein titrated 0.0006-10 nM, anti-human IgG Fc-HRP, OD450
Description: as §3

[5] = biological target: T3, biotinylated human PD-L1 protein …; test: dual-binding ELISA: human TGFβ3 coated, 5 nM binding protein bound to it, biotinylated human PD-L1 titrated 0.0006-10 nM (axis labelled Ab (nM)), streptavidin-HRP, OD450; the EC50 is of the titrated PD-L1
Description: as §2

[6] = biological target: T2, human PD-L1/His fusion protein; test: BLI Octet Red, binding protein on AHC sensor, PD-L1-his in solution
Description: Sensors were then dipped into running buffer (1×pH 7.2 PBS, 0.05% Tween 20, 0.1% BSA) for 60 seconds to check baseline. Binding was measured by dipping sensors into a series diluted concentration of recombinant human PD-L1-his protein. Dissociation was followed by dipping sensors into running buffer for 1200 seconds. The association and dissociation curves were fitted to a 1:1 Langmuir binding model using ForteBio Data Analysis software (Pall). The equilibrium dissociation constant KD (M) of the reaction between antibodies and related target proteins was then calculated from the kinetic rate constants using the formula KD=koff/kₒₙ.

T3 sequence (Q9NZQ7 19-238 limits assumed): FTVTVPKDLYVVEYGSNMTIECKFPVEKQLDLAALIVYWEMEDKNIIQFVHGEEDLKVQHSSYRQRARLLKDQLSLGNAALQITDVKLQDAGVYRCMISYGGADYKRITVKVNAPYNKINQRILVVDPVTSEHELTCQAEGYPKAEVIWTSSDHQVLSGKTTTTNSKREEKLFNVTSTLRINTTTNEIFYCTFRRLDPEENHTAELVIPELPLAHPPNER
T2 sequence (Q9NZQ7 19-239 limits assumed): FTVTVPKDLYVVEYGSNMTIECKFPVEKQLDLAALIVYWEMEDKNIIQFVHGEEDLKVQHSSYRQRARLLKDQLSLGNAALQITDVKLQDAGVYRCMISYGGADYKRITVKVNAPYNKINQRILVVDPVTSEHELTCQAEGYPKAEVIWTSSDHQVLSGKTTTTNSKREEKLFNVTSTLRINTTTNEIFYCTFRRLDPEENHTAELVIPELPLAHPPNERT
T4 sequence (P01137 279-390 limits assumed): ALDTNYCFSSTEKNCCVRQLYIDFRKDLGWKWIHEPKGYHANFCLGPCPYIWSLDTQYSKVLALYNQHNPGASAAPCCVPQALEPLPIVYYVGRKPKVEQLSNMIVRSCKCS

| koff [1] [s⁻¹] | Off-Rate Ratio to that of EM0005-90c [2] [%] | EC50 [3] [pM] | EC50 [4] [pM] | EC50 (human TGFβ1) [pM] | EC50 (human TGFβ2) [pM] | EC50 [5] [pM] | Kd [6] [pM] | Binder |
| --- | --- | --- | --- | --- | --- | --- | --- | --- |
| 0.00328 | 146 |  |  |  |  |  |  | HuEM0005-90-19 (antibody, human IgG1, V domains shown) VH: EVQLVQSGAEVKKPGASVKVSCKTSGYTFTSHSINWVRQATGQGLEWMGYMYIGNGYTEYNEKFKGRVTMTSNTSISTAYMELSSLRSEDTAVYYCAKITPVVAPYVMDYWGQGTSVTVSS VL: DIVMTQSPSFLSASVGDRVTITCKASQDVGTAVAWYQQKPGKAPKLLIYWASTRHTGVPDRFTGSGSGTDFTLTISSLQPEDFATYYCQQYSSYPYTFGQGTKLEIK |
|  |  | 262 | 275 | 374 | 833 | 262 | < 10 | FIT1012-7a TGFβ/PD-L1 bispecific binding protein (bispecific antibody, human IgG1, kappa, Six-chain protein; anti-PD-L1 moiety from HuEM0005-90-1 with G55A; four TGFβR2(ECD) traps) heavy: not shown TIPPHVQKSVNNDMIVTDNNGAVKFPQLCKFCDVRFSTCDNQKSCMSNCSITSICEKPQEVCVAVWRKNDENITLETVCHDPKLPYHDFILEDAASPKCIMKEKKKPGETFFMCSCSSDECNDNIIFSEEYNTSNPDASTKGPSVFPLAPSSKSTSGGTAALGCLVKDYFPEPVTVSWNSGALTSGVHTFPAVLQSSGLYSLSSVVTVPSSSLGTQTYICNVNHKPSNTKVDKKVEPKSC light: DIQLTQSPSFLSASVGDRVTITCKASQDVGTAVAWYQQKPGKAPKLLIYWASTRHTGVPSRFSGSGSGTEFTLTISSLQPEDFATYYCQQYSSYPYTFGQGTKLEIKRTVAAPSVFIFPPSDEQLKSGTASVVCLLNNFYPREAKVQWKVDNALQSGNSQESVTEQDSKDSTYSLSSTLTLSKADYEKHKVYACEVTHQGLSSPVTKSFNRGEC |
